Assay results taken from patent US20220064329A1 (Novo Nordisk, published 2022).
Residue numbers refer to the chain shown, from its start. Numbers in names are those of the source.

B1: VH SEQ ID NO 546 / VL SEQ ID NO 494 (antibody, IgG4, V domains shown)
VH: QVQLQESGPGLVEPSQTLSLTCTVSGYSITSDSAWSWIRQPPGKKLEWIGYIQYSGSTNYNPSLKSRVTISRDTSKNQFSLKLSSVTAADTAVYYCARSVNYYGNSFAVGYWGQGTSVTVSS
VL: EIVLTQSPATLSLSPGERATLSCRASQGVSDYLHWYQQKPGQAPRLLIKYASQPATGIPARFSGSGSGTDFTLTISSLEPEDVAVYYCQNGHSFPLTFGQGTKLEIK
notes: humanized 11F2; IgG4 S228P/kappa
B2: VH SEQ ID NO 570 / VL SEQ ID NO 310 (antibody, IgG4, V domains shown)
VH: B1 VH with E13K, Q16D, T23A, T30S, K45G, I70M, Y111P, S117L
VL: B1 VL with V29I, H34A, V83F
notes: as for B1
B3: VH SEQ ID NO 562 / VL SEQ ID NO 430 (antibody, IgG4, V domains shown)
VH: B1 VH with E13K, Q16D, T23A, T30S, K45G, I70M, A89L, Y111P, S117L
VL: B1 VL with H34A, V83F, A84G
notes: as for B1
B4: VH SEQ ID NO 554 / VL SEQ ID NO 502 (antibody, IgG4, V domains shown)
VH: QVQLQESGPGLVKPSDTLSLTCAVSGYSISSDSAWSWIRQFPGKGLEWIGYIQYSGSTNYNPSLKSRVTMSVDTSKNQFSLKLSSVTALDTAVYYCARSVNYYGNSFAVGPWGQGTLVTVSS
VL: B1 VL with A51T, V83F
notes: as for B1
B5: VH SEQ ID NO 562 / VL SEQ ID NO 470 (antibody, IgG4, V domains shown)
VH: B4 VH with F41P, V72R
VL: B1 VL with V83F
notes: as for B1
B6: VH SEQ ID NO 554 / VL SEQ ID NO 454 (antibody, IgG4, V domains shown)
VH: B4 VH
VL: B1 VL with Q42E, V83F
notes: as for B1
B7: VH SEQ ID NO 562 / VL SEQ ID NO 438 (antibody, IgG4, V domains shown)
VH: B4 VH with F41P, V72R
VL: B1 VL with H34A
notes: as for B1
B8: VH SEQ ID NO 562 / VL SEQ ID NO 494 (antibody, IgG4, V domains shown)
VH: B4 VH with F41P, V72R
VL: B1 VL
notes: as for B1
B9: VH SEQ ID NO 554 / VL SEQ ID NO 318 (antibody, IgG4, V domains shown)
VH: B4 VH
VL: B1 VL with V29I, Q42E, A51T, V83F
notes: as for B1
B10: VH SEQ ID NO 562 / VL SEQ ID NO 318 (antibody, IgG4, V domains shown)
VH: B4 VH with F41P, V72R
VL: B1 VL with V29I, Q42E, A51T, V83F
notes: as for B1
B11: VH SEQ ID NO 554 / VL SEQ ID NO 350 (antibody, IgG4, V domains shown)
VH: B4 VH
VL: B1 VL with V29I, A51T, V83F, Q100A, I106L
notes: as for B1
B12: VH SEQ ID NO 562 / VL SEQ ID NO 310 (antibody, IgG4, V domains shown)
VH: B4 VH with F41P, V72R
VL: B1 VL with V29I, H34A, V83F
notes: as for B1
B13: VH SEQ ID NO 554 / VL SEQ ID NO 494 (antibody, IgG4, V domains shown)
VH: B4 VH
VL: B1 VL
notes: as for B1
B14: VH SEQ ID NO 562 / VL SEQ ID NO 390 (antibody, IgG4, V domains shown)
VH: B4 VH with F41P, V72R
VL: B1 VL with H34A, Q42E, V83F
notes: as for B1
B15: VH SEQ ID NO 562 / VL SEQ ID NO 358 (antibody, IgG4, V domains shown)
VH: B4 VH with F41P, V72R
VL: B1 VL with V29I, A51T, V83F
notes: as for B1
B16: VH SEQ ID NO 562 / VL SEQ ID NO 334 (antibody, IgG4, V domains shown)
VH: B4 VH with F41P, V72R
VL: B1 VL with V29I, V83F
notes: as for B1
B17: VH SEQ ID NO 570 / VL SEQ ID NO 318 (antibody, IgG4, V domains shown)
VH: B4 VH with F41P, V72R, L89A
VL: B1 VL with V29I, Q42E, A51T, V83F
notes: as for B1
B18: VH SEQ ID NO 570 / VL SEQ ID NO 350 (antibody, IgG4, V domains shown)
VH: B4 VH with F41P, V72R, L89A
VL: B1 VL with V29I, A51T, V83F, Q100A, I106L
notes: as for B1
B19: VH SEQ ID NO 562 / VL SEQ ID NO 350 (antibody, IgG4, V domains shown)
VH: B4 VH with F41P, V72R
VL: B1 VL with V29I, A51T, V83F, Q100A, I106L
notes: as for B1
B20: VH SEQ ID NO 562 / VL SEQ ID NO 342 (antibody, IgG4, V domains shown)
VH: B4 VH with F41P, V72R
VL: B1 VL with V29I, A51T, T69R, V83F, Q100A, I106L
notes: as for B1
B21: VH SEQ ID NO 546 / VL SEQ ID NO 502 (antibody, IgG4, V domains shown)
VH: B1 VH
VL: B1 VL with A51T, V83F
notes: as for B1
B22: VH SEQ ID NO 562 / VL SEQ ID NO 382 (antibody, IgG4, V domains shown)
VH: B4 VH with F41P, V72R
VL: B1 VL with V29L, Q42E, V83F
notes: as for B1
B23: VH SEQ ID NO 562 / VL SEQ ID NO 486 (antibody, IgG4, V domains shown)
VH: B4 VH with F41P, V72R
VL: B1 VL with V83F, A84G
notes: as for B1
B24: VH SEQ ID NO 570 / VL SEQ ID NO 334 (antibody, IgG4, V domains shown)
VH: B4 VH with F41P, V72R, L89A
VL: B1 VL with V29I, V83F
notes: as for B1
B25: VH SEQ ID NO 554 / VL SEQ ID NO 342 (antibody, IgG4, V domains shown)
VH: B4 VH
VL: B1 VL with V29I, A51T, T69R, V83F, Q100A, I106L
notes: as for B1
B26: VH SEQ ID NO 570 / VL SEQ ID NO 342 (antibody, IgG4, V domains shown)
VH: B4 VH with F41P, V72R, L89A
VL: B1 VL with V29I, A51T, T69R, V83F, Q100A, I106L
notes: as for B1
B27: VH SEQ ID NO 562 / VL SEQ ID NO 326 (antibody, IgG4, V domains shown)
VH: B4 VH with F41P, V72R
VL: B1 VL with V29I, Q42E, A51T, V83F, A84G, Q100A, I106L
notes: as for B1
B28: VH SEQ ID NO 562 / VL SEQ ID NO 406 (antibody, IgG4, V domains shown)
VH: B4 VH with F41P, V72R
VL: B1 VL with H34A, V83F, Q100A
notes: as for B1
B29: VH SEQ ID NO 562 / VL SEQ ID NO 366 (antibody, IgG4, V domains shown)
VH: B4 VH with F41P, V72R
VL: B1 VL with V29L, H34A, Q42E, V83F
notes: as for B1
B30: VH SEQ ID NO 562 / VL SEQ ID NO 502 (antibody, IgG4, V domains shown)
VH: B4 VH with F41P, V72R
VL: B1 VL with A51T, V83F
notes: as for B1
B31: VH SEQ ID NO 554 / VL SEQ ID NO 358 (antibody, IgG4, V domains shown)
VH: B4 VH
VL: B1 VL with V29I, A51T, V83F
notes: as for B1
B32: VH SEQ ID NO 554 / VL SEQ ID NO 470 (antibody, IgG4, V domains shown)
VH: B4 VH
VL: B1 VL with V83F
notes: as for B1
B33: VH SEQ ID NO 554 / VL SEQ ID NO 334 (antibody, IgG4, V domains shown)
VH: B4 VH
VL: B1 VL with V29I, V83F
notes: as for B1
B34: VH SEQ ID NO 554 / VL SEQ ID NO 326 (antibody, IgG4, V domains shown)
VH: B4 VH
VL: B1 VL with V29I, Q42E, A51T, V83F, A84G, Q100A, I106L
notes: as for B1
B35: VH SEQ ID NO 562 / VL SEQ ID NO 454 (antibody, IgG4, V domains shown)
VH: B4 VH with F41P, V72R
VL: B1 VL with Q42E, V83F
notes: as for B1
B36: VH SEQ ID NO 570 / VL SEQ ID NO 326 (antibody, IgG4, V domains shown)
VH: B4 VH with F41P, V72R, L89A
VL: B1 VL with V29I, Q42E, A51T, V83F, A84G, Q100A, I106L
notes: as for B1
B37: VH SEQ ID NO 554 / VL SEQ ID NO 462 (antibody, IgG4, V domains shown)
VH: B4 VH
VL: B1 VL with V83F, Q100A
notes: as for B1
B38: VH SEQ ID NO 554 / VL SEQ ID NO 382 (antibody, IgG4, V domains shown)
VH: B4 VH
VL: B1 VL with V29L, Q42E, V83F
notes: as for B1
B39: VH SEQ ID NO 562 / VL SEQ ID NO 422 (antibody, IgG4, V domains shown)
VH: B4 VH with F41P, V72R
VL: B1 VL with H34A, V83F, N90Q
notes: as for B1
B40: VH SEQ ID NO 554 / VL SEQ ID NO 478 (antibody, IgG4, V domains shown)
VH: B4 VH
VL: B1 VL with V83F, N90Q
notes: as for B1
B41: VH SEQ ID NO 562 / VL SEQ ID NO 478 (antibody, IgG4, V domains shown)
VH: B4 VH with F41P, V72R
VL: B1 VL with V83F, N90Q
notes: as for B1
B42: VH SEQ ID NO 554 / VL SEQ ID NO 486 (antibody, IgG4, V domains shown)
VH: B4 VH
VL: B1 VL with V83F, A84G
notes: as for B1
B43: VH SEQ ID NO 562 / VL SEQ ID NO 462 (antibody, IgG4, V domains shown)
VH: B4 VH with F41P, V72R
VL: B1 VL with V83F, Q100A
notes: as for B1
B44: VH SEQ ID NO 562 / VL SEQ ID NO 414 (antibody, IgG4, V domains shown)
VH: B4 VH with F41P, V72R
VL: B1 VL with H34A, V83F
notes: as for B1

Molecular target: T1, recombinant human activated Factor VII (FVIIa) (human, UniProt P08709 61-212; P08709 213-466, ten glutamate residues of the Gla domain may be gamma-carboxylated)
T1 construct: chains tethered by a disulfide bond; also called Factor VIIa; rFVIIa
T1 sequence 1: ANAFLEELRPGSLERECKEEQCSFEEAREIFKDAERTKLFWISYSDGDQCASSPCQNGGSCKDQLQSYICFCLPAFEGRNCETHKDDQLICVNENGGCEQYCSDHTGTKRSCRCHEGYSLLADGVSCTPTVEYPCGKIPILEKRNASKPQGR
T1 sequence 2: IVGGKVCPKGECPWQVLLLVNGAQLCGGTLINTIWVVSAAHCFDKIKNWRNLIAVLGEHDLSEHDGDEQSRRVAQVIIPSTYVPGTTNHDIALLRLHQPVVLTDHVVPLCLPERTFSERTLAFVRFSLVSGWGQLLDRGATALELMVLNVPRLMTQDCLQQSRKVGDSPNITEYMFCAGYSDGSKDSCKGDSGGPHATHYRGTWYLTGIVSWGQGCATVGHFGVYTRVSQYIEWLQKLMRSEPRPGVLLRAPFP
Test: BLI (Fortebio)

| Binder | Kd |
| --- | --- |
| B1 | 1.2 nM |
| B2 | 13 nM |
| B3 | 7.9 nM |
| B4 | 18 nM |
| B5 | 1.4 nM |
| B6 | 19 nM |
| B7 | 11 nM |
| B8 | 1.6 nM |
| B9 | 15 nM |
| B10 | 0.92 nM |
| B11 | 19 nM |
| B12 | 6.4 nM |
| B13 | 22 nM |
| B14 | 10 nM |
| B15 | 0.95 nM |
| B16 | 1.2 nM |
| B17 | 0.83 nM |
| B18 | 1 nM |
| B19 | 0.93 nM |
| B20 | 1.3 nM |
| B21 | 1.1 nM |
| B22 | 1.2 nM |

| Binder | Kd |
| --- | --- |
| B23 | 1.3 nM |
| B24 | 0.92 nM |
| B25 | 23 nM |
| B26 | 1.5 nM |
| B27 | 0.78 nM |
| B28 | 7.7 nM |
| B29 | 8.3 nM |
| B30 | 1.1 nM |
| B31 | 16 nM |
| B32 | 19 nM |
| B33 | 18 nM |
| B34 | 14 nM |
| B35 | 1.4 nM |
| B36 | 0.55 nM |
| B37 | 20 nM |
| B38 | 21 nM |
| B39 | 18 nM |
| B40 | 21 nM |
| B41 | 2.6 nM |
| B42 | 19 nM |
| B43 | 1.4 nM |
| B44 | 8.8 nM |
